Results: paper PMC11637429

Target: 6xHis-FoxR^peri-T192A (purified whole periplasmic region of FoxR with T192A) (P. aeruginosa)
Test: AUC; sedimentation velocity titration: FoxR^peri fixed at 10 μm, FoxA^SD at 1, 2, 5, 10, 20, 40 and 80 μm; sw isotherm (absorbance and interference) globally fitted in SEDPHAT to an A+B <-> AB model; 8°C, 20 mM Tris pH 8.3, 500 mM NaCl, 1 mM DTT, 3% glycerol

## 6xHis-FoxA^SD (purified signaling domain of FoxA) (from UniProt Q9I116 53-820) (domain or fragment)
  Kd: 4.3 µM
  stoichiometry N: 1
